# Test results published in patent US20120232127A1, “REGULATION OF NEUROTRANSMITTER RELEASE THROUGH ANION CHANNELS” (KOREA INSTITUTE OF SCIENCE AND TECHNOLOGY, priority 2008, published 2012).
# T1: mBest1 (Mus musculus, UniProt O88870)
# T1 sequence (O88870 1-551): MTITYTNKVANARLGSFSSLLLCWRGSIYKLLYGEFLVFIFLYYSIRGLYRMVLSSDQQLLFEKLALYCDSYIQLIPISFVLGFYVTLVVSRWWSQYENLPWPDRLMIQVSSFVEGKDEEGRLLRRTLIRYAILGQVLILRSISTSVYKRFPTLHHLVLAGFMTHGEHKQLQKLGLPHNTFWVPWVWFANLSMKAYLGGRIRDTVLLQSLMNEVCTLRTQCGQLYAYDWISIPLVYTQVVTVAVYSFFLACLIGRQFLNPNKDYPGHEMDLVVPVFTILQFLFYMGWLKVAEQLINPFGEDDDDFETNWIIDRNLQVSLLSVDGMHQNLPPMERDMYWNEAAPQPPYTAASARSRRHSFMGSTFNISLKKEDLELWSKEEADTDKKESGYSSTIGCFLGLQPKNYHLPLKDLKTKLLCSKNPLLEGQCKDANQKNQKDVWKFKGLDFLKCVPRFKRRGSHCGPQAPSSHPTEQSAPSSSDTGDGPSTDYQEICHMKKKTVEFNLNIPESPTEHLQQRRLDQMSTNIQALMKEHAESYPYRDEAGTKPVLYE
# Tests used:
# [1] = system: astrocytic CAAC / mBest1 channel (glutamate release); assay: Sniffer patch: astrocyte to GluR1 (L497Y)-expressing HEK293T cell pairs, TFLLR-induced glutamate release; assay type: cell-based, mouse; details: relative to scrambled shRNA
# Method: The sniffer patch technique, which is used for determining whether or not one is permeable to glutamate, was performed as described in Lee, C. J. et al. Astrocytic control of synaptic NMDA receptors. J Physiol 581, 1057-81 (2007), which is hereby incorporated by reference for all purposes as if fully set forth herein.
# 2. In experiments using astrocyte-HEK293T cell pairs, the sniffer patch techniques used naïve, scrambled- or mBest1-specific shRNA expressing (with GFP) astrocytes as a glutamate source; and GluR1 (L497Y) expressing HEK293T cells (with DsRED) as a detector. After obtaining gigaohm sealing, GluR1 (L497Y)-expressing cell was firstly ruptured, and then counterpart astrocytes were pressure-applied with 500 uM of TFLLR to evoke an increase in astrocytic intracellular Ca^2+ and resulting glutamate release onto the adjacent HEK293T cells.
# GluR1LY-expressing detector cells were patched with the pipette solution pH 7.3 containing 110 mM CsGluconate, 30 mM CsCl, 5 mM HEPES, 4 mM NaCl, 2 mM MgCl2, 5 mM EGTA, and 1 mM CaCl2. The percentage of GluR1 (L497Y)-mediated current to the full activation level was analyzed by dividing the current amplitude of GluR1 (L497Y) current obtained through sniffer patch measurement by that of fully activated GluR1 (L497Y) current in the same cells.
# The glutamate release through astrocytic CAACs was examined by using “sniffer-patch” technique and recording real-time glutamate release from cultured astrocytes (FIG. 10a). Using this technique, the present inventors observed that TFLLR-induced astrocytic glutamate release into an adjacent HEK293T cells expressing the non-desensitizing AMPA receptor subunit GluR1 (L497Y) mutant evoked an inward current sensitive to AMPA receptor antagonists, which is interpreted to reflect release of glutamate. The effects of TFLLR on current responses in transfected HEK293T cells was blocked by the treatment of niflumic acid (% block by niflumic acid=66.6±5.7%, FIGS. 10d to 10f), which is consistent with the idea that astrocytic CAAC is permeable to glutamate.
# mBest1 = target: T1, mBest1; assay: CAAC current in astrocytes expressing shRNA; assay type: cell-based; parameters: endogenous in cells; host or cells: cultured mouse cortical astrocytes
# Method: For plasmid-based shRNA expression, the following complementary oligonucleotides were annealed and inserted into the HindIII/BglII sites of pSUPER-GFP vector (Oligo Engine):
# The efficacy of the construct to interfere with mBest1 expression was tested against heterologously expressed mBest1 in HEK293T cells (ATCC) by measuring specific CAAC currents. For lentivirus-based shRNA expression, lentiviral vector containing mBest1 gene was constructed by inserting synthetic double-strand oligonucleotides 5′-[…] […]-3′ (SEQ ID NO: 30) into pstI-XbaI restriction enzyme sites of shLenti2.4 CMV lentiviral vector (Macrogen) and verified by sequencing. Scrambled oligonucleotides inserted shLenti construct (Macrogen) was used as control. […]
# Patch pipettes which have 3-6MΩ of resistance are filled with the standard intracellular solution. […] The concentration of free [Ca^2+]i in the solution was determined (Kuruma, A. & Hartzell, H. C. Bimodal control of a Ca(^2+)-activated Cl(−) channel by difference Ca(^2+) signals. J Gen Physiol 115, 59-80 (2000), which is hereby incorporated by reference for all purposes as if fully set forth herein). […]
molecule,measurement,setting,value
"mBest1 shRNA: mBest1-specific short hairpin RNA, SEQ ID NO: 3 and 4 (lentiviral: SEQ ID NO: 30), nucleotides 563-582 of mBest1 (nucleic acid) chain 1: GATCCCCTTGCCAACTTGTCAATGAATTCAAGAGATTCATTGACAAGTTGGCAATTTTTA chain 2: GGGAACGGTTGAACAGTTACTTAAGTTCTCTAAGTAACTGTTCAACCGTTAAAAATTCGA",remaining component of glutamate release from astrocytes by mBest1 knock-down,[1],about 33%
same,CAAC current in astrocyte,mBest1,49.7±8.3 pA
